Experimental data from the DeepSol protein solubility set.

Assay: soluble on expression in E. coli; label from the status in PepcDB or PDB records

| Sequence | soluble on expression in E. coli |
| --- | --- |
| MGSDKIHHHHHHVTTIRFLNGLNTIGGNIVEFATKTSRVIMDFGVAADLSNETVSSAIDNGKLPHVPELFFDQPDVYTHEAIFISHLHIDHMGALQYLKKPIPIYLSEPSYKLYQLLIKLGIEKPVANLHPLAYEQPLTIGDLTVTGFHSDHDEPGVMALLVDDGSRRYAHSGDVRLNGPHAKRVHAWAKRFNQEKLSLFMLEGTSFSFDTAAPVEDQDHPSIPLTEMSLQKQFQTVLAESPTLVVINPYIRNYERLASFQASAHTAGRQLVWEPDDAAVLTTMTDQKPDAILGQTISLTDIARDPQHYVLQNSFDHLERLTDMPITTYIHSNGEPLGDYDPRFAQLKDWLEAHHIPLQFMNASGHASREDLITLAKEVNPRTIVPWHSFHPEREAEALDTQTNAAVVLPERDLYYDFDELSEDE | not soluble |
| GMDTRKLLLTAQEISRMKGEHKVHFLNPGAVRVNKSLGDAVGLRHMGIHLIQIEPGKESTEYHLHHYEEEAVYVLSGKGTLTMENDQYPIAPGDFVGFPCHAAAHSISNDGTETLVCLVIGQRLDQDVVDYPNQHKRLYRNNGEWNLVDMADIRVLREPTQK | soluble |
| MGSDKIHHHHHHMKIAVVGGTFWDIFIFGENPHSSTIRESPGGSGLNVAYGLFLLGHTVDFYSNIGDDWRGKQIVELLEKASFDTSHMSTIQGGKTGIFIAHNDKPLAVDPGVNRKEMKLPSLSEYDLVFVTGEIPEKTIRKICENTKNVILDVGPGARFDTSDLNALVIGNERECSFRKCDVVKMGSKGARWGEVYVPGNGISYPHSIGLGDLFDIVFVHHLPLGKSKKEILEEAVKCSQILGQKENVTPFERISFLEPLSTKDDTLECPDESKDASHHGG | not soluble |
| MSLDGTVLLIDYFEYEREKTKIIFDNIGEYDFIEVENLKKFYSIFKDLDSITLIIMDIAFPVEKEGLEVLSAIRNNSRTANTPVIIATKSDNPGYRHAALKFKVSDYILKPYPTKRLENSVRSVLKICQRFRYEFDSAHVISMSIEDYISKEFKVASRAGQSLSVILMAPVGLEKEPSEQSTQISSELQDQIQNLAIEKVKLSLRSTDTAILNANRDILVILPFTNAAGAQKVLQKIQDNVREGLKSLNINYDDYYYAVSVTFPNDGKTFQSLMEKAVKKVEDKIMLEKITSIGVNILDNARNSYKKFNKEGHHHHHH | soluble |
| MSDFGNPLKKFKLVFLGEQSVGKTSLITRFMYDSFDNTYQATIGIDFLSKTMYLEDRTVRLQLWDTAGQERFRSLIPSYIRDSTVAVVVYDITNSNSFHQTSKWIDDVRTERGSDVIIMLVGNKTDLSDKRQVTTDEGERKAKELNVMFIETSAKAGYNVKQLFRRIAGALPGIIKDDPVEPPNVVTMDPIRQRQIVTDEGSCWC | not soluble |
| MRKWRIEDSEELYNITGWGTSYFSINDAGHVVVTPRRDGVTVDLKELVDELQLRDVASPMLLRFPDILDNRIEKMSSCFKQAAEEYGYKAENFIIYPIKVNQMRPVVEEIISHGKKFNLGLEAGSKPELHAVIAVNTDSDSLIVCNGYKDESYIELALLAQKMGKRIFLVVEKMNELKLIAKMAKQLNVQPNIGIRIKLASSGSGKWEESGGDASKFGLTSSELLEALDFMESKGLKDCLKLIHFHIGSQVTKIRRIKTALREASQFYVQLHSMGFNVEFVDIGGGLGVDYDGTRSSNSEGSVNYSIQEYVNDSISTLVDVSDKNGIPHPNIITESGRALTAHHSVLIFEVLETATLPEWDDEEEIAPDAHELVQELYSIWDSLNQNKMLEAWHDAQQIREEALDLFSHGIVDLKTRAQIERLYWSITREINQIAGGLKHAPDEFRGLSKLLADKYFCNFSLFQSLPDSWAIDQIFPIMPIQRLDEKPERSATLQDITCDSDGKIANFISTRNVAHYLPVHSLKKTEPYYLAVFLVGAYQEILGDMHNLFGDTNAVHVSVNEKGYNIEQIIDGETVAEVLDYVQYNPKKLVRTLETWVTKSVKEGKISLEEGKEFLSNYRSGLYGYTYLE | not soluble |
| GPGSMSFKPTISVHATPQELSAAGCRKIVEIIETSGSQQWPLSIALAGGSTPKMTYARLHDEHLNLLREKRALRFFMGDERMVPADSTDSNYNMAREVLLHDIPDDLVFPFDTSAVTPSAEATSADAMRVAEAYGKQLASLLPLKSVGEAGAKVPVFDVVLLGLGSDGHTASIFPGSQAEKETDGKVVVSVGFPSETMKPKVWRVTLSPATIMQARNVIVLATGAEKKWVVDGILADTAHKAPVARFLRGCEGNVSFLLDKEIAENLAKF | soluble |
| MASLYLGLGFLVSMHSTKPEKADIIVILGGDDGLRVSKGGDLYKAGYAKHVLLTGIDSRYYRPNHPNWRERKLMARGVPRKHIIVDTWSETSWEEAENTSDLMDKNGWKSALVVSDPPHMLRLNKTWKKAFAGTNKRFRLVATEPSWWNPLLWWRNPISYRFVINELKKNIYYLVTYYLEHHHHHH | not soluble |
